In paper PMC11046300 (The Journal of Biological Chemistry, 2024):

B1: His-TEAD4-YBD (domain or fragment, human, UniProt Q15561 217-434, looked up)
chain: RSVASSKLWMLEFSAFLEQQQDPDTYNKHLFVHIGQSSPSYSDPYLEAVDIRQIYDKFPEKKGGLKDLFERGPSNAFFLVKFWADLNTNIEDEGSSFYGVSSQYESPENMIITCSTKVCSFGKQVVEKVETEYARYENGHYSYRIHRSPLCEYMINFIHKLKHLPEKYMMNSVLENFTILQVVTNRDTQETLLCIAYVFEVSASEHGAQHHIYRLVKE

Assays:
Assay in all cases: pull-down
[1] = molecular target: T1, GST-NF2 FERM domain (1-341 aa) (human, UniProt P35240 1-341)
T1 sequence (looked up): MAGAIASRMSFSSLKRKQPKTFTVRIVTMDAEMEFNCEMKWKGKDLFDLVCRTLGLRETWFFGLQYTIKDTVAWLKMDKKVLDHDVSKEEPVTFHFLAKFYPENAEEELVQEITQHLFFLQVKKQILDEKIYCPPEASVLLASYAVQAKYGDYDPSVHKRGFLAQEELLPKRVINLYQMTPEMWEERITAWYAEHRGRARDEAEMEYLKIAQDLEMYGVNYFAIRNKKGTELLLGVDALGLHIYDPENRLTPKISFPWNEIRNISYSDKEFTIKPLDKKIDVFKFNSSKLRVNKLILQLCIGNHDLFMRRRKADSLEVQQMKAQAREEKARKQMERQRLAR

[2] = molecular target: T2, GST-NF2 C-terminal half (342-595 aa) (human, UniProt P35240 342-595)
T2 sequence (looked up): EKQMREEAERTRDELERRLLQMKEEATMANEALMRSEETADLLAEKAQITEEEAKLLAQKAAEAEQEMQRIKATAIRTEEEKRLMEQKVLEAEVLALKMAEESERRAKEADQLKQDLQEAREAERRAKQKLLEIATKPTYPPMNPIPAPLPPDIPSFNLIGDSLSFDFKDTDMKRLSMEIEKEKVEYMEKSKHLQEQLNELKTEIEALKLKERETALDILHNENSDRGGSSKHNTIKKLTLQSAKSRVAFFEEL

[3] = molecular target: T3, GST-tagged full-length NF2 (human, UniProt P35240 1-595)
T3 sequence (looked up): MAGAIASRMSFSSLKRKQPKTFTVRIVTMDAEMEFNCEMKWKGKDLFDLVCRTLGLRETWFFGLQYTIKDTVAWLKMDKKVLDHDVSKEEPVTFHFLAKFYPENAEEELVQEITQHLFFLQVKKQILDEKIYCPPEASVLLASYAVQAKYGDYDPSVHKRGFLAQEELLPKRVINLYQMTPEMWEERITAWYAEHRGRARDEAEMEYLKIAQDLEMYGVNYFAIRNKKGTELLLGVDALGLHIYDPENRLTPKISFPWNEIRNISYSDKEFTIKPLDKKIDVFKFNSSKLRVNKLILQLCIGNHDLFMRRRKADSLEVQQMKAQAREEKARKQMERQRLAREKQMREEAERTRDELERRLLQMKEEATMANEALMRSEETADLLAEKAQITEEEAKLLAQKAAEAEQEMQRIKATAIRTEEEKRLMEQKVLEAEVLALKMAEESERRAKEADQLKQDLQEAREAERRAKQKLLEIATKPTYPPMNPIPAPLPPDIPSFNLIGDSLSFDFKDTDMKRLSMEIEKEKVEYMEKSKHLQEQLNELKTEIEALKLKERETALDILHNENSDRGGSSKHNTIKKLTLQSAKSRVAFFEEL

[4] = molecular target: B1
[5] = molecular target: T4, MBP-NF2 (18-595) (human, UniProt P35240 18-595)
T4 sequence (looked up): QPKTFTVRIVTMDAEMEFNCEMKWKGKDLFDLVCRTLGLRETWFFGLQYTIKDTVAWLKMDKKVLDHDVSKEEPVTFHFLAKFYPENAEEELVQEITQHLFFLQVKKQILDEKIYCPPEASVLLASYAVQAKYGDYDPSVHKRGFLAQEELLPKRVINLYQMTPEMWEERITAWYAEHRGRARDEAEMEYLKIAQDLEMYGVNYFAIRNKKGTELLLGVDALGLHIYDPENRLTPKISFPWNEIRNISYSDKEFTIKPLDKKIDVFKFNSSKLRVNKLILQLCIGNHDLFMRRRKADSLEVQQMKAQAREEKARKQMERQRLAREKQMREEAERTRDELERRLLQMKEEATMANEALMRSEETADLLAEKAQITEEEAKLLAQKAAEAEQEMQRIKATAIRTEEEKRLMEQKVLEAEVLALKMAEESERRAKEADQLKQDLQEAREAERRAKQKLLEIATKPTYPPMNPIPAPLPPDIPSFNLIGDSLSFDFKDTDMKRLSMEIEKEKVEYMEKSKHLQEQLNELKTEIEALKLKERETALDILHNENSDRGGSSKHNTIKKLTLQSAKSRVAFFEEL

[6] = molecular target: T5, MBP-NF2 A585W (human, UniProt P35240 18-595, A585W)
T5 sequence (looked up): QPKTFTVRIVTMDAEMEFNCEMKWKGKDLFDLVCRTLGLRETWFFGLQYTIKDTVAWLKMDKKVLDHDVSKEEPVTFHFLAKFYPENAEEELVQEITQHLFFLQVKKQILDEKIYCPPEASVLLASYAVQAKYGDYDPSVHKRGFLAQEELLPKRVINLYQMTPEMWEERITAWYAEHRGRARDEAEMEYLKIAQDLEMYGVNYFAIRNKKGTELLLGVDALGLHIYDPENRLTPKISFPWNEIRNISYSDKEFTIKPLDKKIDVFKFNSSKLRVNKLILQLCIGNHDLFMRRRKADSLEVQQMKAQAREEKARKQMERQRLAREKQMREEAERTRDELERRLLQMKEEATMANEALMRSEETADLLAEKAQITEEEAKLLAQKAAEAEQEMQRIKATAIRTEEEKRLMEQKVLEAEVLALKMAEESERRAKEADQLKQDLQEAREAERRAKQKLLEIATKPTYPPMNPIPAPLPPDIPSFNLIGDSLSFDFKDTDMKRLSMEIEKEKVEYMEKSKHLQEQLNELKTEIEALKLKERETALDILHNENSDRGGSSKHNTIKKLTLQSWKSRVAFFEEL

binding result [1] | binding result [2] | binding result [3] | binding result [4] | binding result [5] | binding result [6] | Binder
binds | binds | binds | – | – | – | SUMO-His-tagged TEAD4 YBD domain (217-434) (domain or fragment, human, UniProt Q15561 217-434, looked up) RSVASSKLWMLEFSAFLEQQQDPDTYNKHLFVHIGQSSPSYSDPYLEAVDIRQIYDKFPEKKGGLKDLFERGPSNAFFLVKFWADLNTNIEDEGSSFYGVSSQYESPENMIITCSTKVCSFGKQVVEKVETEYARYENGHYSYRIHRSPLCEYMINFIHKLKHLPEKYMMNSVLENFTILQVVTNRDTQETLLCIAYVFEVSASEHGAQHHIYRLVKE
– | – | – | binds | – | – | GST-NF2-507-595 (domain or fragment, human, UniProt P35240 507-595, looked up) FDFKDTDMKRLSMEIEKEKVEYMEKSKHLQEQLNELKTEIEALKLKERETALDILHNENSDRGGSSKHNTIKKLTLQSAKSRVAFFEEL
binds | – | – | – | binds | binds | B1
